Stoichiometry N data for three substances are collected here from PMC8692893.

As a reminder, the stoichiometry N is the number of molecules, sites or subunits per partner or assembly.

Several values for one entry are separate records, joined by “and”; a condition that tells them apart may be missing. Identical values can stand only once.

Test [1] addresses IgW in bamboo shark plasma (Chiloscyllium plagiosum (endogenous in plasma)). Description: non-reducing gel electrophoresis with Western blot (data not shown); IgW multimers in plasma, data not shown; anti-IgW [V43]. (In western blotting, separated proteins are transferred to a membrane and probed.)
For test [2], the target named is IgM in bamboo shark plasma (Chiloscyllium plagiosum (endogenous in plasma)). Description: non-reducing SDS-PAGE and SDS-agarose gel electrophoresis with Western blot; 1 µl plasma heated at 65°C for 10 min in SDS-loading buffer without reducing agents; 5% SDS-PAGE; 1.5% agarose gel with 0.1% SDS in the running buffer for plasma proteins larger than 300 kDa; blots probed with anti-IgNAR pAb or anti-IgM [Z69]; multimers counted in Ig monomers by molecular weight.

The target of test [3] is immunoglobulin new antigen receptor (IgNAR), secretory, in bamboo shark plasma (Chiloscyllium plagiosum (endogenous in plasma)). The description is as above.

As for “IgW in bamboo shark plasma (natural protein)”, the stoichiometry N in test [1] is 5 and 2.

“IgM in bamboo shark plasma (natural protein)”: in test [2], the stoichiometry N is 5. Consider “immunoglobulin new antigen receptor (IgNAR), secretory, in bamboo shark plasma (natural protein)”, for which, in test [3], the stoichiometry N was 3 and 4 and 5.
